Reference: article PMC11903869, “Structure and function of the geldanamycin amide synthase from Streptomyces hygroscopicus” (Nature Communications, 2025)

Assays:
[1] = biological target: T1, GdmF (Streptomyces hygroscopicus, UniProt Q84G21); experiment: X-ray crystal structure (cleaved group from pantetheine thioesters); type: binding
T1 construct: full-length GdmF, N-terminal histidine hexamer

[2] = biological target: T1, GdmF; experiment: microscale thermophoresis; type: binding
[3] = biological target: T1, GdmF; experiment: X-ray crystal structure (cleaved group from SNAC thioesters); type: binding
[4] = substrate: CC/C=C/C(=O)SCCNC(=O)CCNC(=O)[C@H](O)C(C)(C)CO; experiment: purified protein, by the assay type; parameters: Steady-state amide formation, thiol release from thioesters monitored with DTNB at 405 nm, 22 °C; kcat: unit: s^-1; settings: pH 7.5; 22.0 °C
Procedure: (§1) The enzymatic activity of ShGdmF was measured by monitoring the release of free thiols with 5,5’-dithio-bis(2-nitrobenzoic acid) (DTNB) at 405 nm in 100 mM sodium phosphate buffer, pH 7.5. 2 µM ShGdmF was pre-incubated with 2 mM aminophenol 32 or 33 and 100 µM DTNB at 22 °C for 5 min in a 96-well plate before increasing concentrations of thioester 11a-c or 13a-c were added to each well. Measurements were performed using a Multiskan FC Microplate Photometer (Thermo Fisher Scientific) at 22 °C. Each measurement was performed in triplicate. […] The enzyme is able to catalyze the amide synthesis of SNAC and pantetheine thioesters directly in vitro and in the absence of the cellular environment (Fig. 6e + 6f). The kinetic parameters KM of GdmF for substrate conversion range from submillimolar to millimolar at maximum rates (kcat) of 0.001 to 0.02 s^−1. […] For the SNAC thioesters, an increase in kcat/KM with increasing chain length was observed, whereas in the case of the pantetheine thioesters, a decrease in catalytic efficiency with longer acyl substrates was observed. In terms of kcat values, the activity of GdmF is similar to that of the related MsNAT.

[5] = substrate: C/C=C(\C)C(=O)SCCNC(C)=O; experiment: purified protein, by the assay type; parameters: Steady-state amide formation, thiol release from thioesters monitored with DTNB at 405 nm, 22 °C; kcat: unit: s^-1; settings: pH 7.5; 22.0 °C
Procedure: as §1

[6] = substrate: C/C=C/C(=O)SCCNC(C)=O; experiment: purified protein, by the assay type; parameters: Steady-state amide formation, thiol release from thioesters monitored with DTNB at 405 nm, 22 °C; kcat: unit: s^-1; settings: pH 7.5; 22.0 °C
Procedure: as §1

[7] = substrate: CC(=O)SCCNC(=O)CCNC(=O)[C@H](O)C(C)(C)CO; experiment: purified protein, by the assay type; parameters: Steady-state amide formation, thiol release from thioesters monitored with DTNB at 405 nm, 22 °C; kcat: unit: s^-1; settings: pH 7.5; 22.0 °C
Procedure: as §1

[8] = substrate: CC/C=C/C(=O)SCCNC(=O)CCNC(=O)[C@H](O)C(C)(C)CO; experiment: purified protein, by the assay type; parameters: Steady-state amide formation, thiol release from thioesters monitored with DTNB at 405 nm, 22 °C; kcat: unit: s^-1; settings: pH 7.5; 22.0 °C; remark: listed apart in the source
Procedure: as §1

[9] = substrate: C/C=C(\C)C(=O)SCCNC(C)=O; experiment: purified protein, by the assay type; parameters: Steady-state amide formation, thiol release from thioesters monitored with DTNB at 405 nm, 22 °C; kcat: unit: s^-1; settings: pH 7.5; 22.0 °C; remark: listed apart in the source
Procedure: as §1

[10] = substrate: C/C=C/C(=O)SCCNC(C)=O; experiment: purified protein, by the assay type; parameters: Steady-state amide formation, thiol release from thioesters monitored with DTNB at 405 nm, 22 °C; kcat: unit: s^-1; settings: pH 7.5; 22.0 °C; remark: listed apart in the source
Procedure: as §1

[11] = substrate: CC(=O)SCCNC(=O)CCNC(=O)[C@H](O)C(C)(C)CO; experiment: purified protein, by the assay type; parameters: Steady-state amide formation, thiol release from thioesters monitored with DTNB at 405 nm, 22 °C; kcat: unit: s^-1; settings: pH 7.5; 22.0 °C; remark: listed apart in the source
Procedure: as §1

CC(C)(CO)[C@@H](O)C(=O)NCCC(=O)NCCS [pantetheine]
X-ray crystal structure (cleaved group from pantetheine thioesters) [1]: Crystal structure of GdmF with bound pantetheine, and (b) N-acetylcysteamine (SNAC) in the active site cleft

C/C=C(\C)C(=O)SCCNC(C)=O [11b, SNAC ester 11b]
Kd [2]: 1160 µM

CC(=O)NCCS [N-acetylcysteamine]
X-ray crystal structure (cleaved group from SNAC thioesters) [3]: we found densities for the cleaved SNAC or pantetheine groups, instead

CC(=O)SCCNC(=O)CCNC(=O)[C@H](O)C(C)(C)COP(=O)(O)OP(=O)(O)OC[C@H]1O[C@@H](n2cnc3c(N)ncnc32)[C@H](O)[C@@H]1OP(=O)(O)O [compound 5, acetyl-CoA]
Kd [2]: 2960 µM

B1: GdmF (Streptomyces hygroscopicus) (protein)
chain: MFDVAKYLRRIGVEGTPPPTLDTLRHLHKRHLMAVPYDNSTAPDRLPASRHLTNVPLDLVFGHVVTEGHGGVCYELNRLFHTLLAELGYDVRMVAAAVRQANGTFGPEREHTFDLVHLDGRTHLVDVGFPGPSYSEPLYLSEEEQHQYGCSYRVTEHDGYRVVERRPKGSDWQPVYRFRPELADPSGWDAVRLDSLDDYAQDSVLAGTTFRSRATDNGKIVLIGRRYFTVEDGVERTKVLVKADEFQDVVDLILAGA
notes: full-length GdmF, N-terminal histidine hexamer
Km [4]: 1.1368 ± 0.1369 mM | kcat [4]: 0.0027 ± 0.00013 s⁻¹ | kcat/Km [4]: 2.37 M⁻¹ s⁻¹ | Km [5]: 2.735 ± 0.6103 mM | kcat [5]: 0.0071 ± 0.0007 s⁻¹ | kcat/Km [5]: 2.6 M⁻¹ s⁻¹ | Km [6]: 0.8581 ± 0.2327 mM | kcat [6]: 0.0016 ± 0.00019 s⁻¹ | kcat/Km [6]: 1.87 M⁻¹ s⁻¹ | Km [7]: 6.4136 ± 2.0704 mM | kcat [7]: 0.0164 ± 0.0039 s⁻¹ | kcat/Km [7]: 2.56 M⁻¹ s⁻¹ | Km [8]: 8.2677 ± 1.6107 mM | kcat [8]: 0.0084 ± 0.0013 s⁻¹ | kcat/Km [8]: 1.02 M⁻¹ s⁻¹ | Km [9]: 6.9024 ± 4.1426 mM | kcat [9]: 0.012 ± 0.0058 s⁻¹ | kcat/Km [9]: 1.74 M⁻¹ s⁻¹ | Km [10]: 1.8651 ± 0.2537 mM | kcat [10]: 0.0032 ± 0.00026 s⁻¹ | kcat/Km [10]: 1.72 M⁻¹ s⁻¹ | Km [11]: 3.6483 ± 2.8127 mM | kcat [11]: 0.0075 ± 0.0051 s⁻¹ | kcat/Km [11]: 2.06 M⁻¹ s⁻¹
